Values of other authors in PMC7825312.

Biological target: Cys38 (UniProt position 39, SFLKECPSGRI)
Experiment: UV-vis

Recoverin (Bos taurus)
pKa: 7.6
